Measured values: patent US20130039922A1 (YEDA RESEARCH AND DEVELOPMENT, published 2013)

T1: mouse MMP-9 catalytic domain (mouse, UniProt P41245 107-215; P41245 391-443, biotinylated (site not stated))
T1 construct: range 107-215;range 391-443; also called Biotinylated mouse catalytic MMP-9; not shown: N-terminal His tag from the pET3a construct
T1 sequence (looked up): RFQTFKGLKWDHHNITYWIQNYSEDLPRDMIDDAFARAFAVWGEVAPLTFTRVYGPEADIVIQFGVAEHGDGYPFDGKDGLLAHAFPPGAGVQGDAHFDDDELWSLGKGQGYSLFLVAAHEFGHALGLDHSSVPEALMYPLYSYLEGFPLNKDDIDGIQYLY

T2: Human pro-MMP-2 (human, UniProt P08253 30-660)
T2 construct: Zymogen with pro-domain; also called MMP-2 zymogen
T2 sequence (looked up): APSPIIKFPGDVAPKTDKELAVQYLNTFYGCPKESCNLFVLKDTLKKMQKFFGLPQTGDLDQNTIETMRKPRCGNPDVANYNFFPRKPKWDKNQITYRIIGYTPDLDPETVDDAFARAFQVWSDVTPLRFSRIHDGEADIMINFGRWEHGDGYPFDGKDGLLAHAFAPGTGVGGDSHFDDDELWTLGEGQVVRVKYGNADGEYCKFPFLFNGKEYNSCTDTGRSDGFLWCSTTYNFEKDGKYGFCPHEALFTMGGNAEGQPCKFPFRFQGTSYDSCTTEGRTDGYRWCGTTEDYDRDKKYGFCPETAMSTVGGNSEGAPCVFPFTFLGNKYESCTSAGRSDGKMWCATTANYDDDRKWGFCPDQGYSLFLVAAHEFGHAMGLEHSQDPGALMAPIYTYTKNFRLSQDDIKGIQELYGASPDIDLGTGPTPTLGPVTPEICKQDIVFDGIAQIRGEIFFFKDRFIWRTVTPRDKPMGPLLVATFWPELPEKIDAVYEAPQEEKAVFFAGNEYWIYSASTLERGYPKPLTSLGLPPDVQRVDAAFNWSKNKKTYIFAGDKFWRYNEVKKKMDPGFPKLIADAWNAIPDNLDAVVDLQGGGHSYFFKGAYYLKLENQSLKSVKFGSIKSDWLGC


Key:
[1] = target: MMP-2 (as used in the enzymatic kinetic assay); experiment: cell-based or functional assay
Chain of MMP-2 (as used in the enzymatic kinetic assay) (P33434 110-467): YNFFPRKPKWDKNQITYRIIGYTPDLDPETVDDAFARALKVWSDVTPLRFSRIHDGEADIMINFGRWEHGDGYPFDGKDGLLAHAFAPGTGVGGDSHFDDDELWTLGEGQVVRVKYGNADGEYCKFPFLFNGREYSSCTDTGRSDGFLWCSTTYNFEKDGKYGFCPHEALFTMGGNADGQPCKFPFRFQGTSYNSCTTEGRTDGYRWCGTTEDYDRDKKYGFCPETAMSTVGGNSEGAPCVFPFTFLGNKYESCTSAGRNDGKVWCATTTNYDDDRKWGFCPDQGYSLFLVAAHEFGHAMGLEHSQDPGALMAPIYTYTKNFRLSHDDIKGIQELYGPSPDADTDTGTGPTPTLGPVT

[2] = target: T3, human MT1-MMP catalytic domain (human, UniProt P50281 114-290); experiment: cell-based or functional assay
[3] = target: T4, active MMP-9 (as used in the enzymatic kinetic assay and the XAS studies); experiment: cell-based or functional assay
[4] = target: T5, MMP-9 catalytic fibronectin fragment (human or mouse (not told which)); experiment: SPR (BIAcore 3000), biotin-labeled MMP-9 on SA chip, antibody in flow
T5 construct: domain: catalytic fibronectin fragment; Immobilized on a streptavidin (SA) sensor chip for SPR; also called Biotinylated human or mouse MMP-9 catalytic fibronectin fragment; Biotin-labeled MMP-9
Source text: (§1) FIGS. 13A-B are graphs illustrating results of SPR analysis of SDS3/SDS4 binding to MMP-9. Biotinylated human or mouse MMP-9 catalytic fibronectin fragment was immobilized on streptavidin (SA) chip. Control-corrected sensorgrams corresponding to the interaction of SDS3(FIG. 13A) and SDS4 (FIG. 13B) with biosensor surface-immobilized MMP-9 are shown. Antibody concentrations are represented by different colors, with specific values indicated. The data were collected in duplicate, and representative SPR sensorgrams in the ligand concentration series are shown. The ka (1/Ms) and kd (1/s) values were determined by SPR analysis, and KD (M) was calculated from ka and kd (KD=kd/ka).RU,response units.
(§2) The affinity between SDS3/SDS4 and human and mouse MMP-9 catalytic fibronectin fragment was measured with a BIAcore 3000 instrument (BIACORE). Biotin-labeled MMP-9 was immobilized on a sensor chips SA by the biotin-streptavidin coupling method, according to the manufacturer's instructions. All measurements were carried out at 25° C. and with a flow rate of 20 μl/min for both the association and dissociation phases in TBS buffer (50 mM Tris, 100 mM NaCl, 5 mM CaCl₂, pH 7.5). The interaction was monitored as the change in the SPR response. The association and dissociation rate constants, kₐ and kd, were determined by analysis of the appropriate regions of the sensogram using the BIAevaluation 3.2 software package (Pharmacia). The apparent equilibrium dissociation constant KD was determined from the ratio of the two rate constants (kd/kₐ).

[5] = target: MMP-2 (as used in the enzymatic kinetic assay); experiment: enzyme kinetics, fluorogenic peptide hydrolysis, fit to competitive inhibition
Description: (§3) Similarly the enzymatic activity of TACE was measured by monitoring the degradation of fluorogenic peptide QF-45 (Mca-[…]dinitrophenyl)-NH2) (SEQ ID NO: 2). A range of different mAb concentrations (0.4-30 μM) were pre-incubated with 2 nM of active enzyme in 50 mM Tris buffer (pH 7.5 37° C.), 200 mM NaCl, 5 mM CaCl₂, and 0.05% Brij 35 for 40 minutes at 37° C. The enzymatic reaction was initiated by addition of 10 μM of the fluorogenic peptide. Fluorescence (as a measure of substrate degradation) was immediately recorded continuously for 30-50 minutes. Initial reaction rates were measured and inhibition constants were evaluated by fitting to equation of competitive inhibition (vi/vo=Km+[S]/(Km(1+I/Ki)+[S]) [I. H. Segel, Enzyme Kinetics (Wiley-Interscience Publication, 1993)], where vi is initial velocity in the presence of mAb, vo is the initial velocity in the absence of mAb inhibitor, S is substrate concentration Km is the Michaelis-Menten constant and I is mAb concentration.
(§4) The effect of SDS3 and SDS4 on MMPs' enzymatic activity was examined using to standard peptide hydrolysis assay based on conversion of fluorogenic peptide substrate [C. G. Knight, F. Willenbrock, G. Murphy, FEBS Lett 296, 263 (Jan. 27, 1992)] as well as native gelatin substrate. Initial reaction velocities were measured in the presence of several concentrations of metallobodies incubated with various MMPs and tumor necrosis factor-alpha converting enzyme (TACE).

[6] = target: T3, human MT1-MMP catalytic domain; experiment: as above
Description: as §3, §4

[7] = target: T4, active MMP-9 (as used in the enzymatic …); experiment: as above
Description: as §3, §4

[8] = target: T1, mouse MMP-9 catalytic domain; experiment: ELISA, biotinylated mouse catalytic MMP-9 on streptavidin plate, soluble antibody
Description: ELISA Binding Assay: Biotinylated mouse catalytic MMP-9 was coupled to streptavidin coated microtiter plate (Nunc) according to manufacture protocol. After the plates were coated, they were incubated with the SDS3/4 mAb for 2 hours at room temperature. The plates were washed, and bound Ab was detected with peroxidase-labeled goat anti-mouse IgG (Jackson) according to standard procedures. EC₅₀, or concentration of half-maximal binding was calculated from a four-parametric sigmoidal-curve fitting analysis.

[9] = target: T5, MMP-9 catalytic fibronectin fragment; experiment: SPR (BIAcore 3000), biotin-labeled MMP-9 on SA chip, antibody in flow; KD=kd/ka
Source text: as §1
as §2, with “All measurements were carried out at 25° C. and with a flow rate of 20 μl/min for both the association and dissociation phases in TBS buffer (50 mM Tris, 100 mM NaCl, 5 mM CaCl₂, pH 7.5).” left out

[10] = target: T4, active MMP-9 (as used in the enzymatic …); experiment: cell-based or functional assay; remark: listed apart in the source
[11] = target: T6, native bovine serum albumin (bovine, UniProt P02769 25-607); experiment: ELISA screen of hybridoma supernatants on plate-absorbed antigen
T6 construct: Unconjugated carrier protein used as the counter-screen in the hybridoma ELISA; also called native BSA; BSA
T6 sequence (P02769 25-607 limits assumed): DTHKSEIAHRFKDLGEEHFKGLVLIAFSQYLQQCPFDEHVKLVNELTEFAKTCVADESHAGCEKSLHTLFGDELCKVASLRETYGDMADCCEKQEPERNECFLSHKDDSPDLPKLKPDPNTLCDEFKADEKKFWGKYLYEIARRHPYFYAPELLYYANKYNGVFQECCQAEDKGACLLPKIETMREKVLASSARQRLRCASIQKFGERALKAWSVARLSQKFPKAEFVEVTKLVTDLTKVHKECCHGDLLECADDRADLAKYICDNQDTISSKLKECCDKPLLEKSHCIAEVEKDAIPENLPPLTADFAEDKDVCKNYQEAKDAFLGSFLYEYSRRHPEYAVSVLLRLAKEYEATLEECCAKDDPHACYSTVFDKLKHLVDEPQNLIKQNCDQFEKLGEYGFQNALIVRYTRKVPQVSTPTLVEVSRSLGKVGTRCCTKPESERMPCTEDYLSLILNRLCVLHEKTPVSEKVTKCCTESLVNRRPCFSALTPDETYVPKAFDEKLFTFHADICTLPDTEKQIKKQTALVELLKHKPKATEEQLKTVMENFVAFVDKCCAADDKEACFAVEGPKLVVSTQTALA
Description: Preparation of Anti-MMP Metallobodies Using Zn-Tripod-KLH as an Immunogen: Female BALB/c mice were immunized on day 1 with complete Freund adjuvant and 50 μg of Zinc-Tripod-KLH and boosted every two weeks with incomplete Freund adjuvant by emulsifying and intraperitoneal injection. Spleen cells from the immunized mice were fused with NSO murine myeloma cells and cultured in HAT (hypoxantine/aminopterin/thymidine) selection medium. The culture supernatants of the hybridoma were screened using an ELISA, employing pairs of wells in microtiter plates on which were absorbed MMP-9 catalytic domain and Zinc-Tripod-BSA as antigens (0.5 μg of MMP-9 or Zinc-Tripod-BSA conjugate per well). After incubation with 100 μl of the hybridoma supernatants, and with intervening washes with Tris-buffered saline, pH 7.5, containing 0.05% Tween 20 (TBS-Tween), the wells were incubated with a peroxidase-conjugated goat anti-mouse IgG, followed by a substrate solution containing 2′-azino-bis(3-ethylbenzthiazoline-6-sulfonic acid) diammonium salt. Hybridoma cells, corresponding to the supernatants that were positive on both MMP-9 and Zinc-Tripod—BSA and negative on native BSA, were then cloned by limited dilution. After repeated screenings, four clones showing the most distinctive recognition of both antigens were obtained and clone SDS3 was chosen for further characterization.

Human Pro-MMP-9 = target: T7, Human Pro-MMP-9 (human, UniProt P14780 20-707); experiment: pull-down with SDS3 on protein A beads, SDS-PAGE, Coomassie staining
T7 construct: Zymogen with pro-domain; also called MMP-9 zymogen
T7 sequence (P14780 20-707): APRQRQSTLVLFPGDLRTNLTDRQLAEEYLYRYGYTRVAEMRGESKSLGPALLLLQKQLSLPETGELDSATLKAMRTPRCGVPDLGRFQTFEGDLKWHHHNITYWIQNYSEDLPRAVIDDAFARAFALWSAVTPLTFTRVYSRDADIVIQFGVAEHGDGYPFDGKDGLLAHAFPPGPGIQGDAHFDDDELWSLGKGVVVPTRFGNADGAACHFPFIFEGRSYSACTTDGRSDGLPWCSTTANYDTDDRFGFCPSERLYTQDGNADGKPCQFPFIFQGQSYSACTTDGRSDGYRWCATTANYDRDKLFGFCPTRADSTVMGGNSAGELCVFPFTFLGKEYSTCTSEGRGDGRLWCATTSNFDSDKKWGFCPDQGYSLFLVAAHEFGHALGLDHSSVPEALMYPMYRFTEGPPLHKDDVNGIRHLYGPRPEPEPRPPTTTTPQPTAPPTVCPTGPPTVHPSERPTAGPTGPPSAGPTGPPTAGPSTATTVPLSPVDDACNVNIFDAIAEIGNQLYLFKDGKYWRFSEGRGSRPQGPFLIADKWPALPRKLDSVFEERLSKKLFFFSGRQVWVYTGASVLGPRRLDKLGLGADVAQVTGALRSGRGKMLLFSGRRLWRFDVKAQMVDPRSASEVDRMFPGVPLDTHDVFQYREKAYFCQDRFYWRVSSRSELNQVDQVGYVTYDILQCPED
Description: (§5) FIGS. 7A-B are photographs illustrating that SDS3 recognizes only the active conformation of MMP-2 and -9. FIG. 7A: Western blot analyses of MMP-9 using commercial anti-MMP-9 antibody. Lane 1—SDS3 captured from mice ascetic fluid by protein G beads; lane 2—As control non-related IgG similarly captured; lane 3—ProMMP-9, as a molecular weight marker to discern the active species. FIG. 7B: SDS3 mAb immobilized to protein A beads was analyzed for its ability to pull down purified ProMMP-9 (top), ProMMP-2 (middle) or active MMP-2 (bottom). Immunoprecipitates (lane 1) and unbound fraction (lane 2) were separated on SDS/PAGE gel, and visualized by Coomassie-staining. As a negative control for non-specific adsorption, enzyme alone was incubated with protein A Sepharose beads (lane 3).
(§6) After washing unbound antibody, purified enzyme ProMMP-9, Pro-MMP-2, or active MMP-2 fragment (catalytic and fibronectin domain), was added following 2 hour incubation under continuous stirring at room temperature. Bead-bound immune complex was collected by centrifugation and washed three times with PBS. Bound proteins were eluted with SDS sample buffer, fractionated by SDS-PAGE, and detected by Coomassie blue staining. As negative control for non specific adsorption enzyme was incubated with protein A Sepharose beads.

Human pro-MMP-2 = target: T2, Human pro-MMP-2; experiment: as above
Description: as §5, §6

IC50 of inhibition of enzymatic activity (fluorogenic peptide hydrolysis) [1]	IC50 of inhibition of enzymatic activity (fluorogenic peptide hydrolysis) [2]	IC50 of inhibition of enzymatic activity (fluorogenic peptide hydrolysis) [3]	koff [4]	kon [4]	Ki [5]	Ki [6]	Ki [7]	EC50 [8]	Kd [9]	IC50 (read off the curve) [10]	binding result [11]	binding result (Human Pro-MMP-9)	binding result (Human pro-MMP-2)	Binder
56 nM	1420 nM	70 nM	0.00166 s⁻¹	439000 M⁻¹ s⁻¹	54 nM	1400 nM	54 nM	15 nM	3.78 nM					SDS4 (antibody, V domains shown, Mouse hybridoma monoclonal antibody raised against Zn-Tripod-KLH; also called SDS4 mAb; SDS4 metallobody) VH: EVQLQQSGPELVKPGASVKISCKASGYTFTGYYMHWVKQSPEKSLEWIGEINPSTGGTTYNQKFTGKATLTVDKSSSTAYMQLKSLTSDDSAVYYCASYYRYDWFAYWGQGTLVTVSA VL: DVLMTQTPLSLPVSLGDQASISCRSSQSLVHSNGNTYLHWYLQKPGQSPKLLIYKVSNRFSGVPDRFSGSGSGTDFTLKISRVEAEDLGVYFCSQSTHVPFTFGSGTKLELKR
1400 nM		1000 nM	0.00135 s⁻¹	6640 M⁻¹ s⁻¹	1000 nM		1000 nM	200 nM	200 nM	~3000 nM	no binding	no binding	no binding	SDS3 (antibody, V domains shown, Mouse hybridoma monoclonal antibody raised against Zn-Tripod-KLH; also called SDS3 mAb; SDS3 metallobody) VH: VQLQESGGGLVKPGGSLKLSCAASGFAFSTYDMSWIRQTPEKRLEWVATISSGGSYTYYPDSVKGRFTISKDNARNTLYLQMSSLRSGDTALYYCTRFRYDGWYFDVWGQG VL: DVLITQTPLSLPVSLGDQASISCRSSQSIVHSNGNTFLEWYLQKPGQSPKLLIYKVSNRFSGVPDRFSGSGSGTDFTLKISRVEAEDLGVYYCFQASHVPPTFGGG
